These results are taken from patent US20260001928A1 (CORTERIA PHARMACEUTICALS, priority 2022, published 2026).

*1 amine or outer side, *2 acyl side, *3 side chain or, on linkers, in order; H or OH if unused. Where no end group is shown, it is not given here. Side-chain parts run from the residue outwards. [ ]: non-standard residue; d: D form. The star is where a group is joined. C20 diacid = O=C(O)CCCCCCCCCCCCCCCCCCC(=O)*; γGlu = O=C(O)[C@H](CCC(=O)[*:2])N[*:1]; NMeI = CC[C@H](C)[C@H](NC)C(=O)O; AEEA = NCCOCCOCC(=O)O; Aib = CC(C)(N)C(=O)O

The assay deals with T1, CRF1R (corticotropin-releasing factor receptor 1), on the CRF1R-overexpression CHO-K1 cell line clone 2 (UniProt P34998 24-415, limits assumed).
T1 sequence (looked up): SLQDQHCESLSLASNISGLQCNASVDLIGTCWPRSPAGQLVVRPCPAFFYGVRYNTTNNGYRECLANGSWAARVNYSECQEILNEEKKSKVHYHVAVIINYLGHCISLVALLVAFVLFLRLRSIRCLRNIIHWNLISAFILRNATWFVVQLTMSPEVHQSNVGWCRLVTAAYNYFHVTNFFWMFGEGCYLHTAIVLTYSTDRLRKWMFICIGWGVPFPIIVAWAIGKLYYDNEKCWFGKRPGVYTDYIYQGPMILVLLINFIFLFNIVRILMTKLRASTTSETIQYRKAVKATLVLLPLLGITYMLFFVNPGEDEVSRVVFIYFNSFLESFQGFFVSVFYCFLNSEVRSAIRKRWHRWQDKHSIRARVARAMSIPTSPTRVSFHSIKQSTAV
Kind of assay: cell-based or functional assay.

B1: peptide of SEQ ID NO: 229 (peptide)
peptide: [NMeI]VLSLD[dV]PIGLK([γGlu-C20 diacid])KILLEQEKQKKQREQAETN[Aib]QILAQV-NH2
modifications: N-terminus assumed
SMILES: CC[C@H](C)[C@H](NC)C(=O)N[C@H](C(=O)N[C@@H](CC(C)C)C(=O)N[C@@H](CO)C(=O)N[C@@H](CC(C)C)C(=O)N[C@@H](CC(=O)O)C(=O)N[C@@H](C(=O)N1CCC[C@H]1C(=O)N[C@H](C(=O)NCC(=O)N[C@@H](CC(C)C)C(=O)N[C@@H](CCCCNC(=O)CC[C@H](NC(=O)CCCCCCCCCCCCCCCCCCC(=O)O)C(=O)O)C(=O)N[C@@H](CCCCN)C(=O)N[C@H](C(=O)N[C@@H](CC(C)C)C(=O)N[C@@H](CC(C)C)C(=O)N[C@@H](CCC(=O)O)C(=O)N[C@@H](CCC(N)=O)C(=O)N[C@@H](CCC(=O)O)C(=O)N[C@@H](CCCCN)C(=O)N[C@@H](CCC(N)=O)C(=O)N[C@@H](CCCCN)C(=O)N[C@@H](CCCCN)C(=O)N[C@@H](CCC(N)=O)C(=O)N[C@@H](CCCNC(=N)N)C(=O)N[C@@H](CCC(=O)O)C(=O)N[C@@H](CCC(N)=O)C(=O)N[C@@H](C)C(=O)N[C@@H](CCC(=O)O)C(=O)N[C@H](C(=O)N[C@@H](CC(N)=O)C(=O)NC(C)(C)C(=O)N[C@@H](CCC(N)=O)C(=O)N[C@H](C(=O)N[C@@H](CC(C)C)C(=O)N[C@@H](C)C(=O)N[C@@H](CCC(N)=O)C(=O)N[C@H](C(N)=O)C(C)C)[C@@H](C)CC)[C@@H](C)O)[C@@H](C)CC)[C@@H](C)CC)C(C)C)C(C)C
As for B1, the “EC50 [nM] (cAMP, CRF1R-overexpression CHO-K1 cells)” value turned out to be 203 nM and the “Emax (% I) (cAMP, 100% = Sauvagine at 100 nM)” value is 43 % I.

B2: peptide of SEQ ID NO: 239 (peptide)
peptide: [NMeI]VLSLD[dV]PIKLK([AEEA-AEEA-γGlu-C20 diacid])KILLEQEKQK[Aib]QREQAETN[Aib]QILAQV-NH2
modifications: N-terminus assumed
SMILES: CC[C@H](C)[C@H](NC)C(=O)N[C@H](C(=O)N[C@@H](CC(C)C)C(=O)N[C@@H](CO)C(=O)N[C@@H](CC(C)C)C(=O)N[C@@H](CC(=O)O)C(=O)N[C@@H](C(=O)N1CCC[C@H]1C(=O)N[C@H](C(=O)N[C@@H](CCCCN)C(=O)N[C@@H](CC(C)C)C(=O)N[C@@H](CCCCNC(=O)COCCOCCNC(=O)COCCOCCNC(=O)CC[C@H](NC(=O)CCCCCCCCCCCCCCCCCCC(=O)O)C(=O)O)C(=O)N[C@@H](CCCCN)C(=O)N[C@H](C(=O)N[C@@H](CC(C)C)C(=O)N[C@@H](CC(C)C)C(=O)N[C@@H](CCC(=O)O)C(=O)N[C@@H](CCC(N)=O)C(=O)N[C@@H](CCC(=O)O)C(=O)N[C@@H](CCCCN)C(=O)N[C@@H](CCC(N)=O)C(=O)N[C@@H](CCCCN)C(=O)NC(C)(C)C(=O)N[C@@H](CCC(N)=O)C(=O)N[C@@H](CCCNC(=N)N)C(=O)N[C@@H](CCC(=O)O)C(=O)N[C@@H](CCC(N)=O)C(=O)N[C@@H](C)C(=O)N[C@@H](CCC(=O)O)C(=O)N[C@H](C(=O)N[C@@H](CC(N)=O)C(=O)NC(C)(C)C(=O)N[C@@H](CCC(N)=O)C(=O)N[C@H](C(=O)N[C@@H](CC(C)C)C(=O)N[C@@H](C)C(=O)N[C@@H](CCC(N)=O)C(=O)N[C@H](C(N)=O)C(C)C)[C@@H](C)CC)[C@@H](C)O)[C@@H](C)CC)[C@@H](C)CC)C(C)C)C(C)C
Consider B2, for which the “EC50 [nM] (cAMP, CRF1R-overexpression CHO-K1 cells)” value was over 250 nM and the “Emax (% I) (cAMP, 100% = Sauvagine at 100 nM)” value came to 0 % I.
